Measurements: the RNAGym collection of RNA variant scans (doi:10.1073/pnas.2313332121)

B1: TPR t1 (parent)
chain: GACCAAUCUGCCCUCAGAGCUCGAGAACAUCUUCGGAUGCAGAGGAGGCAGGCUUCGGUGGCGCGAUAGCGCCAACGUCCUCAACCUCCAAUGCAUCCCACCACAUGAUGAUGCCUGAAGAGCCUUGGUUUUUUG

Variants of: B1
Assay: polymerase ribozyme fitness, log enrichment relative to wild type (log ratio); higher = more active; in vitro selection for triplet polymerase activity
In short: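 One round of in vitro selection, in triplicate, was applied to PCR-built, transcribed mutant libraries of each subunit of a heterodimeric triplet polymerase ribozyme. The steps were annealing with a biotinylated primer, partner subunit and triplets, incubation frozen at −7 °C, gel excision of extended constructs, streptavidin-bead capture and RT-PCR. Fitness is the logarithm, base 2, of genotype enrichment over wild-type enrichment from inverse-variance-weighted replicate averages of Illumina-sequenced inputs and outputs, keeping genotypes with ≥10 input reads and ≥1 read per output.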

Q: For C11A C13U C53G A90C A91G, which “polymerase ribozyme fitness (log ratio)” value is on record?
A: The value was -3.8.

Q: With A29U C31G C34G G44A G60A C114U as the variant, how does the “polymerase ribozyme fitness (log ratio)” value read?
A: The value was -6.84.

Q: For A29U G45U G69U, which “polymerase ribozyme fitness (log ratio)” value is on record?
A: Its value is -2.7.

Q: With A16U A29U G36A A43C G44U C53A G63C U112C as the variant, how does the “polymerase ribozyme fitness (log ratio)” value read?
A: The value was -5.08.

Q: For G44A U54A C62A U106A, which “polymerase ribozyme fitness (log ratio)” value is on record?
A: The value was -3.38.

Q: For U81A A95U C102G A103U G110C U125G, which “polymerase ribozyme fitness (log ratio)” value is on record?
A: Its value is -6.02.

Q: With C13U U116C as the variant, how does the “polymerase ribozyme fitness (log ratio)” value read?
A: The value was 1.02.

Q: For U32C C53U C56A A118U, which “polymerase ribozyme fitness (log ratio)” value is on record?
A: The value was 0.16.

Q: With G52U C64U U132A as the variant, how does the “polymerase ribozyme fitness (log ratio)” value read?
A: The value was -1.1.

Q: For C64U G107U U130C, which “polymerase ribozyme fitness (log ratio)” value is on record?
A: Its value is -6.04.

Q: For U7C A27G C62U G63A, which “polymerase ribozyme fitness (log ratio)” value is on record?
A: The value was -2.76.

Q: For U59G C101G C114U, which “polymerase ribozyme fitness (log ratio)” value is on record?
A: Its value is -2.59.

Q: With C3U G48A C72U U129G as the variant, how does the “polymerase ribozyme fitness (log ratio)” value read?
A: Its value is -4.31.

Q: Which “polymerase ribozyme fitness (log ratio)” value does the source give for G25C A46U G61C C62A G113A C124A here?
A: The value was -8.51.

Q: Which “polymerase ribozyme fitness (log ratio)” value does the source give for C20G G63A C102A U106C G120A U126A here?
A: The value was -7.38.

Q: With U55G U132C as the variant, how does the “polymerase ribozyme fitness (log ratio)” value read?
A: Its value is -0.153.

Q: Which “polymerase ribozyme fitness (log ratio)” value does the source give for G10A G122A here?
A: Its value is 0.549.

Q: For A18U G47U C101A U109A G113A U116A, which “polymerase ribozyme fitness (log ratio)” value is on record?
A: The value was -6.66.

Q: With C4A U9G C40U G44A U55C C88A G120C as the variant, how does the “polymerase ribozyme fitness (log ratio)” value read?
A: Its value is -3.07.

Q: For G48A U112C, which “polymerase ribozyme fitness (log ratio)” value is on record?
A: Its value is 0.294.

Q: Which “polymerase ribozyme fitness (log ratio)” value does the source give for G45C G113C here?
A: Its value is -2.91.

Q: With U9G A26C as the variant, how does the “polymerase ribozyme fitness (log ratio)” value read?
A: The value was -4.47.

Q: Which “polymerase ribozyme fitness (log ratio)” value does the source give for A18U G44U C124U here?
A: The value was -1.28.

Q: With G71U G77C C86U as the variant, how does the “polymerase ribozyme fitness (log ratio)” value read?
A: The value was -2.09.

Q: With C8A G35A C123A as the variant, how does the “polymerase ribozyme fitness (log ratio)” value read?
A: Its value is -1.9.

Q: For A43C A46C U96A U106A U116G C123A, which “polymerase ribozyme fitness (log ratio)” value is on record?
A: The value was -7.89.

Q: For U14C U132C, which “polymerase ribozyme fitness (log ratio)” value is on record?
A: Its value is -1.36.

Q: With C56U U126G as the variant, how does the “polymerase ribozyme fitness (log ratio)” value read?
A: Its value is -1.91.

Q: For A37U G44A G122A U130C U131A G135U, which “polymerase ribozyme fitness (log ratio)” value is on record?
A: Its value is -1.23.

Q: With U54G G69U as the variant, how does the “polymerase ribozyme fitness (log ratio)” value read?
A: Its value is -0.782.

Q: With C94A C104A C123U as the variant, how does the “polymerase ribozyme fitness (log ratio)” value read?
A: The value was -1.42.

Q: With U21C G71A C101U G117A as the variant, how does the “polymerase ribozyme fitness (log ratio)” value read?
A: The value was -2.85.

Q: With A66C U112A G128C as the variant, how does the “polymerase ribozyme fitness (log ratio)” value read?
A: The value was -4.27.

Q: For A2C C13A C72U, which “polymerase ribozyme fitness (log ratio)” value is on record?
A: The value was -4.81.

Q: With G63A C115A as the variant, how does the “polymerase ribozyme fitness (log ratio)” value read?
A: The value was -1.19.

Q: Which “polymerase ribozyme fitness (log ratio)” value does the source give for C8A A46U G61A G117C here?
A: The value was -2.38.

Q: With C70U G128U as the variant, how does the “polymerase ribozyme fitness (log ratio)” value read?
A: The value was -1.82.

Q: For G10A C53A C72U, which “polymerase ribozyme fitness (log ratio)” value is on record?
A: The value was 0.298.

Q: With A74C A95U G113U U125A as the variant, how does the “polymerase ribozyme fitness (log ratio)” value read?
A: Its value is -4.37.

Q: For C20U G45U A100U, which “polymerase ribozyme fitness (log ratio)” value is on record?
A: The value was -3.67.

Q: For G61A G93A C104U, which “polymerase ribozyme fitness (log ratio)” value is on record?
A: The value was 0.015.

Q: For C70U U106G C124U, which “polymerase ribozyme fitness (log ratio)” value is on record?
A: Its value is -1.06.

Q: Which “polymerase ribozyme fitness (log ratio)” value does the source give for C79G C114G here?
A: Its value is -5.17.

Q: With U55C C56U U78C G93A C101A as the variant, how does the “polymerase ribozyme fitness (log ratio)” value read?
A: Its value is -1.12.

Q: Which “polymerase ribozyme fitness (log ratio)” value does the source give for C8G G44U G61A U78A C82G C115A U130A here?
A: The value was 0.635.

Q: Which “polymerase ribozyme fitness (log ratio)” value does the source give for U14G C40A G42C C80U G120U here?
A: Its value is -3.6.

Q: With A24G U59G as the variant, how does the “polymerase ribozyme fitness (log ratio)” value read?
A: The value was -1.69.

Q: With C56U A74G U81G G117U A118U as the variant, how does the “polymerase ribozyme fitness (log ratio)” value read?
A: The value was -4.51.

Q: Which “polymerase ribozyme fitness (log ratio)” value does the source give for C28U G58A here?
A: The value was -2.03.

Q: With U7C C13U G47U C85A A111U as the variant, how does the “polymerase ribozyme fitness (log ratio)” value read?
A: The value was -5.01.

Q: With C56U C85A as the variant, how does the “polymerase ribozyme fitness (log ratio)” value read?
A: The value was -1.96.

Q: For G61A G120U G135U, which “polymerase ribozyme fitness (log ratio)” value is on record?
A: The value was -0.818.

Q: With A74G U87A G117C G120A A121U U129A as the variant, how does the “polymerase ribozyme fitness (log ratio)” value read?
A: The value was -6.07.

Q: For U30C U106A, which “polymerase ribozyme fitness (log ratio)” value is on record?
A: Its value is -1.11.

Q: With U7G G42A G71A as the variant, how does the “polymerase ribozyme fitness (log ratio)” value read?
A: Its value is -2.58.

Q: With G48A C88U as the variant, how does the “polymerase ribozyme fitness (log ratio)” value read?
A: The value was -0.667.

Q: With A43C G61U C82U C104G C123A as the variant, how does the “polymerase ribozyme fitness (log ratio)” value read?
A: Its value is -7.32.

Q: Which “polymerase ribozyme fitness (log ratio)” value does the source give for A27U G47C here?
A: The value was -4.91.

Q: For C11U A29G G77U A84U C89A, which “polymerase ribozyme fitness (log ratio)” value is on record?
A: Its value is -6.04.

Q: Which “polymerase ribozyme fitness (log ratio)” value does the source give for G36A C62A here?
A: The value was -1.61.

Q: For U9A A43U C76A C85G G120A U130C, which “polymerase ribozyme fitness (log ratio)” value is on record?
A: The value was -1.48.

Q: With C12U C49G C56U as the variant, how does the “polymerase ribozyme fitness (log ratio)” value read?
A: The value was -0.342.

Q: For C28G C124G, which “polymerase ribozyme fitness (log ratio)” value is on record?
A: Its value is -0.979.

Q: For G63U U109G, which “polymerase ribozyme fitness (log ratio)” value is on record?
A: The value was -6.35.

Q: With C13U U32G as the variant, how does the “polymerase ribozyme fitness (log ratio)” value read?
A: Its value is -5.28.

Q: Which “polymerase ribozyme fitness (log ratio)” value does the source give for C28A C64G A111U C115G here?
A: Its value is -6.15.

Q: With A46C U87G A100U as the variant, how does the “polymerase ribozyme fitness (log ratio)” value read?
A: The value was -0.0504.

Q: With G45C A74G A75U G77C C88U G135C as the variant, how does the “polymerase ribozyme fitness (log ratio)” value read?
A: The value was -1.28.

Q: With C72G A105G as the variant, how does the “polymerase ribozyme fitness (log ratio)” value read?
A: Its value is -1.94.

Q: For U81A U109A, which “polymerase ribozyme fitness (log ratio)” value is on record?
A: The value was -5.72.

Q: With G39A G71U as the variant, how does the “polymerase ribozyme fitness (log ratio)” value read?
A: Its value is -0.815.

Q: With C101A C115G U132C as the variant, how does the “polymerase ribozyme fitness (log ratio)” value read?
A: Its value is -3.46.

Q: Which “polymerase ribozyme fitness (log ratio)” value does the source give for C13U U33C A50G A84C C124G here?
A: The value was -5.51.

Q: Which “polymerase ribozyme fitness (log ratio)” value does the source give for C40A G61A C80U here?
A: The value was -2.91.

Q: Which “polymerase ribozyme fitness (log ratio)” value does the source give for C8G G36U C49G C62G U129C here?
A: Its value is -3.6.

Q: Which “polymerase ribozyme fitness (log ratio)” value does the source give for G10U C11G C62G here?
A: Its value is -1.22.

Q: With C70A C85U C88U G122U C124G as the variant, how does the “polymerase ribozyme fitness (log ratio)” value read?
A: Its value is -2.37.

Q: With G17A C72G U96A as the variant, how does the “polymerase ribozyme fitness (log ratio)” value read?
A: Its value is -4.81.

Q: For C34A G63U G120A, which “polymerase ribozyme fitness (log ratio)” value is on record?
A: Its value is -4.37.

Q: Which “polymerase ribozyme fitness (log ratio)” value does the source give for C62U U87A here?
A: The value was 0.539.

Q: For U54A G71U C79U G93A C94U, which “polymerase ribozyme fitness (log ratio)” value is on record?
A: The value was -2.4.

Q: Which “polymerase ribozyme fitness (log ratio)” value does the source give for C8U G57A here?
A: Its value is -0.0154.

Q: With A2U as the variant, how does the “polymerase ribozyme fitness (log ratio)” value read?
A: Its value is -2.07.
